Measured values reported in patent publication US4016250A, “Method for testing for pregnancy” (Cornell Research Foundation, Inc., priority 1974, dated 1977).

Columns and labels:
[1] = biological target: T1, receptor for HCG in plasma membranes from bovine corpora lutea (Bos taurus, UniProt Q28005); test: Radioreceptorassay of HCG: competition with 125I-HCG for plasma membrane receptor; type: binding
T1 construct: 100 g. of tissue from approximately 25 large corpora lutea; from tissue; host or cells: bovine corpora lutea of early pregnancy (slaughterhouse), plasma membrane fraction from zonal sucrose gradient
Experimental: All procedures in the preparation of plasma membranes were carried out in an ice bath or at 4° C. Fresh bovine ovaries from early pregnancy (first trimester: fetus length from crown to rump up to 22 cm.) were obtained from the slaughter house and stored in liquid nitrogen until processed. In a typical experiment, 100 g. of tissue from approximately 25 large corpora lutea were cut into small pieces with a sharp steel blade and ground in 500 ml. of 10 mM. Tris-HCl buffer of pH. 7.8 containing one mM. of MgCl2, one MM. dithiothreitol, 10,000I.U. of Trasylol (FBA Pharmaceuticals) per liter and 0.25 M. sucrose. The homogenate was filtered through two layers of cheese cloth and the larger particles were reprocessed in 500 ml. of the buffer. […] The homogenate was centifuged at 650 xg. for 20 minutes in a Sorvall refrigerated centrifuge (RC B, Rotor GSA) to remove intact cells, cell debris and nuclei. The 650 × g. supernatant was again centrifuged at 13,000 g. for 20 minutes in the same centrifuge. […]
In Table I, the incubation was performed for 30 minutes at 37° C. in a Dunaboff water bath shaker. […] The supernates were aspirated and the pellets were counted in a Packard Autogamma counter with a 51% efficiency for I^125. The standard curves and the hormonal concentration in the plasma samples were calculated by a time sharing IBM computer using logit-log transformations.

[2] = biological target: T2, PRL receptor sites in ovarian homogenates (Bos taurus, UniProt Q28172); test: Specificity of 125I-hPRL binding: displacement by unlabeled hormones; design: species or system bovine
T2 construct: from tissue; host or cells: ovarian homogenate (bovine, from the preparation section)
T2 sequence (Q28172 25-581): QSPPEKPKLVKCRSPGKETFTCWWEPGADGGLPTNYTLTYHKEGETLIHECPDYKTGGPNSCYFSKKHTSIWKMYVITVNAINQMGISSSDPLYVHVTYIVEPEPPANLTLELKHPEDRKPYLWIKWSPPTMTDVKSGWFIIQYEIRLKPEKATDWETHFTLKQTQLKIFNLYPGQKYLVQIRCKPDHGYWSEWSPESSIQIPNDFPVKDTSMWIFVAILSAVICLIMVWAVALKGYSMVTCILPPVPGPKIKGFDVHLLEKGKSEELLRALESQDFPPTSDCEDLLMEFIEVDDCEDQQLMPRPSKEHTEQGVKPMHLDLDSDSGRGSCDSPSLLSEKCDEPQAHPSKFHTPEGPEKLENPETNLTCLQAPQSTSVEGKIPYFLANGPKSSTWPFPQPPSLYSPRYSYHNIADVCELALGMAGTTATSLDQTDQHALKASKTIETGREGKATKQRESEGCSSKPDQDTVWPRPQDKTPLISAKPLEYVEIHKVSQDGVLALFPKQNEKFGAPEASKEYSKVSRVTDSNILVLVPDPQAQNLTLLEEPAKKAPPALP
Experimental: A reaction mixture containing 100 ul of incubation buffer containing 10 IU Trasylol (FBA Pharmaceuticals, New York, New York), 50 ul of receptor preparation equivalent to 1-300 ug of protein and 100 ul of ^125 I-hPRL (SA; 50-70 uCi/ug) were incubated at 37° C. for 2 hours in the absence and in the presence of 1 ug of unlabeled bovine PRL. At the end of incubation, 1 ml of ice cold buffer was added to all tubes and tubes were centrifuged at 5,000 rpm for 20 minutes. The supernatants were aspirated. The pellets containing receptor bound hormones were counted in an Automamma counter with a 51% efficiency for ^125 I (Packard Instrument Company, Downers Grove, Illinois). Specific binding was calculated as the difference of binding in the tubes with and without unlabeled PRL.

T1 sequence (Q28005 27-701): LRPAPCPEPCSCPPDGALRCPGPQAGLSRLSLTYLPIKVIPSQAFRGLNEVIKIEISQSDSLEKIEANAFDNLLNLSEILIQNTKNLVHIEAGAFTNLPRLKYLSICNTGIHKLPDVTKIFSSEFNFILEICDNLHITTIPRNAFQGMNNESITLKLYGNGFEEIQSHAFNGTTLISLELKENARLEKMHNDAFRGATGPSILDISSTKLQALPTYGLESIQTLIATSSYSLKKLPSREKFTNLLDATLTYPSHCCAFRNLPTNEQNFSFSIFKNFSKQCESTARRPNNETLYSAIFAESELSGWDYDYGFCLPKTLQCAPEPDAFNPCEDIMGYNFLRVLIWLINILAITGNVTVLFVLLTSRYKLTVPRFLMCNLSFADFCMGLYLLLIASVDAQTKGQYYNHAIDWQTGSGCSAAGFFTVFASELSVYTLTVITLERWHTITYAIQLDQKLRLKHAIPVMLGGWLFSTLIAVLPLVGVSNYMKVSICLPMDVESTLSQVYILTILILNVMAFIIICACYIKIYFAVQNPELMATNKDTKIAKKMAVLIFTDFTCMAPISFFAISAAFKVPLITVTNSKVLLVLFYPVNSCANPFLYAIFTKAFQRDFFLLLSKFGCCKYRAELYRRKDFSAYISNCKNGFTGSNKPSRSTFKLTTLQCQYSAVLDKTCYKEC

| logit-log line of radioreceptorassay response compared with HCG ([1]; same system, different concentrations) | potency in displacing receptor-bound 125I-hPRL relative to hPRL [2] | displacement of 125I-hPRL bound to receptor protein ([2]; various concentrations) | cross-reaction in the radioreceptorassay of HCG (FIG. 2) ([1]; FIG. 2 legends: TSH, HGH, PRL are plasma from hypothyroid, acromegalic, postpartum lactation subjects) | Substance |
| --- | --- | --- | --- | --- |
| parallel to the line for HCG | – | – | – | LH from rat: sample of luteinizing hormone from rat |
| – | 0.5-1 % of hPRL | capable of displacing | no cross-reaction | human growth hormone [hGH] |
